From US20210380714A1 (Amgen, published 2021)

T1: Rat MSLN (Rattus norvegicus, UniProt Q9ERA7)
T1 construct: also called rat mesothelin
T1 sequence (target, looked up): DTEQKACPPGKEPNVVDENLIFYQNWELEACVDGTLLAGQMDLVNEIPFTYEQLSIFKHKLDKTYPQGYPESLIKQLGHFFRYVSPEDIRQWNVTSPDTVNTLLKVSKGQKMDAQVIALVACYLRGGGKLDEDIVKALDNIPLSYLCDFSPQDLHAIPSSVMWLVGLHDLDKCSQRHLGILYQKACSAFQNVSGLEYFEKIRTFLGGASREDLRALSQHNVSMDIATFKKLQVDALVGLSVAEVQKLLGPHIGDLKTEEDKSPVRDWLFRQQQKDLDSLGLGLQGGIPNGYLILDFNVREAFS

T2: Mouse MSLN (Mus musculus, UniProt Q61468)
T2 construct: also called murine mesothelin
T2 sequence (target, looked up): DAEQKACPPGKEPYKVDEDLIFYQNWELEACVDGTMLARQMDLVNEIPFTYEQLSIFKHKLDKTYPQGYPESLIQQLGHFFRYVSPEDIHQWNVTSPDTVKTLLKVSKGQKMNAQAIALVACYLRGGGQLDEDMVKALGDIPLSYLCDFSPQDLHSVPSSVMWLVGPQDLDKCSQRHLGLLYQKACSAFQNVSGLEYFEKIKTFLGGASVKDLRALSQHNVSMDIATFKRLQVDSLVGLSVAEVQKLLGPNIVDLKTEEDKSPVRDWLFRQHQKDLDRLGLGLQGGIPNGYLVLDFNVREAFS


Experiments:
Rat MSLN = target: T1, Rat MSLN; test: FACS on 293T cells transiently expressing the orthologue
Method: (§1) FACs assays were performed by incubating hybridoma supernatants with 10,000 to 25,000 cells in PBS/2% Fetal bovine serum/2 mM Calcium Chloride at 4° C. for one hour followed by two washes with PBS/2% Fetal bovine serum/2 mM Calcium Chloride. Cells were then treated with florochrome-labeled secondary antibodies at 4° C. followed by one wash. The cells were resuspended in 50 μl of PBS/2% FBS and antibody binding was analyzed using a FACSCalibur™ instrument.

Mouse MSLN = target: T2, Mouse MSLN; test: as above
Method: as §1

binding result (Rat MSLN)	binding result (Mouse MSLN)	Binder
binds	binds	Ab237 (Hu-anti-huMesothelin-2.37-IgG1) (antibody, V domains shown, Fully human antibody from XenoMouse; Only the variable domains are tied to Ab237) VH: QVQLQESGPGLVKPSQTLSLTCTVSGGSINNNNYYWTWIRQHPGKGLEWIGYIYYSGSTFYNPSLKSRVTISVDTSKTQFSLKLSSVTAADTAVYYCAREDTMTGLDVWGQGTTVTVSS VL: DIQMTQSPSSLSASVGDRVTITCRASQSINNYLNWYQQKPGKAPTLLIYAASSLQSGVPSRFSGSRSGTDFTLTISSLQPEDFAAYFCQQTYSNPTFGQGTKVEVK
–	no binding	158.3 (antibody, V domains shown, also called 1.58.3 g1; 1.58.3 g2) VH: QVQLQESGPGLVKPSETLSLTCTVSGGSIISHYWSWIRQPPGKGLEWIGYIYYSGSTNYNPSLKSRVTISVDTSKNQFSLKLTSVTAADTAVYYCARDGWSAFDYWGQGTLVTVSS VL: DIQMTQSPSSLSASVGDRVTITCRASQGIRNALGWYQQKPGKAPKRLIYAASSLQSGVPSRFSGSGSGTEFTLTISSLQPEDFATYYCLQHNSYPRTFGQGTKVEIRR
–	no binding	151 (antibody, V domains shown, also called Ab1.51) VH: QVQLQESGPGLVKPSETLSLTCTVSGGSISSYYWSWIRQPPGKGLEWIGYIYYSGSTNYNPSLKSRVTISVDTSKNQFSLKLSSVTAADTAVYYCARVDYKAFDIWGQGTMVTVSS VL: DIQMTQSPSSLSASVGDRVTITCRASQGIRNDLHWYQQKPGKAPKRLIYAASSLQSGVPSRFSGSGSGTEFTLTISSLQPEDFATYYCLQHYSYPWTFGQGTKVEIK
